Patent US12611470B2, “Chromatin-opening element for stable long term gene expression” (CZ Biohub SF, LLC, priority 2019, dated 2026)

Columns and labels:
[1] = system: P19 murine embryonic carcinoma stem cell line; assay: Stable transfection silencing screen of candidate UCOEs linked to Ef1α-GFP; assay type: cell-based, mouse; conditions: UCOE-Ef1α-GFP stable transfection
Protocol: The candidate regions tested were Candidates 1, 1R, 3, 5, 6, 6R, 7, 8, 9R, 10, and 10R, with “R” denoting that the reverse orientation of the candidate region was tested. As a negative control, the stable expression construct without a UCOE or candidate region was assessed (Ef1a). As a positive control, the 2.2 kB A2UCOE sequence, as well as the 1.2 kB reverse orientation sequence 3′UCOE, were cloned into the same reporter construct as the candidate sequences. The percent GFP positive in the population was monitored as a metric for silencing by flow cytometry analysis with each passage, with the change (difference between final and initial time points) plotted on the graph (Δ% GFP+).
The assay is the same stable transfection screen format described for FIG. 2B. […]
Fluorescence data throughout silencing experiments was obtained using a MACSQuant® VYB flow cytometer (Miltenyi Biotec). EGFP was measured through the 488-nm laser and 525/50 nm band pass filter. Flow cytometry data was analyzed using the FlowJo™ single cell flow cytometry analysis software (Tree Star). […]
Candidates were initially screened in the P19 murine embryonic carcinoma stem cell line. […] As P19 cells readily integrate DNA, a stable transfection of the expression construct performed. […]

[2] = system: P19 cells; assay: Standalone (intrinsic) promoter activity screen, UCOE-GFP construct lacking the Ef1a promoter; assay type: cell-based, mouse; conditions: for inherent promoter activity: synthetic construct without other promoter
From the text: A schematic representation of the expression construct in which the candidate region (UCOE) is inserted upstream of the GFP gene in the absence of any other promoter sequences as used is shown as an inlay. As positive controls, the Ef1α promoter, the 2.2 kB A2UCOE sequence, and the 1.2 kB reverse orientation sequence 3′UCOE, were cloned into the same reporter construct as the candidate sequences. The percent GFP positive in the population was monitored as a metric for gene expression by flow cytometry analysis with each passage (% GFP). Stably transfected cells were assayed for % GFP+ and median fluorescent intensity (normalized to Ef1a promoter control). Data is reported as mean±SD from biological duplicates.
P19 cells were seeded at 25,000 cells/well in 12 well plates. 24 h after seeding, cells were transfected using Lipofectamine™ 2000 transfection reagent (Thermo Fisher) according to the manufacturer's instructions using 500 ng DNA/well and 2.5 μL of Lipofectamine per well. 24 hours after transfection, selection was initiated with 1 μg/mL puromycin (Sigma-Aldrich) in regular growth media and, from then on, cells were passaged at 1:15 or 1:20 dilutions whenever cells were 80-90% confluent (every 2-3 days) with frequent refreshing of puromycin-containing media to clear dead cells. After approximately 14-16 days, remaining cells were assumed to be stably transfected and were changed to regular growth media to initiate silencing experiments. During silencing experiments, the P19 cells were passaged every 2-3 days and re-seeded at 15,000 cells/well.
Fluorescence data throughout silencing experiments was obtained using a MACSQuant® VYB flow cytometer (Miltenyi Biotec). EGFP was measured through the 488-nm laser and 525/50 nm band pass filter. Flow cytometry data was analyzed using the FlowJo™ single cell flow cytometry analysis software (Tree Star). After being gated for singlets and viability, GFP+ gates in FlowJo were drawn such that a non-transfected or non-transduced P19 cell population was at 1% GFP+. Median values reported are of cells within the GFP+ gate, both % GFP positive and median are reported with the standard deviation of biological replicates.
As A2UOCE dually functions as a protective regulatory element and a universal promoter, the candidate UCOEs were further screened for standalone promoter activity. A similar experiment as the aforementioned screen was performed using a similar expression construct that lacked the Ef1a promoter. This construct was used to assess whether the candidate sequences could drive reporter expression and act as stand-alone functional promoters. Candidates were compared to the positive control of the EF1a promoter, which had ˜70% GFP+ cells after two weeks of antibiotic selection, showing a distinct positive population in the fluorescence histogram. The GFP+ gate (i.e., flow cytometry fluorescence threshold for GFP+ cells) was set to encompass 1% of untransfected cells and then applied to all samples. […] Such a result appears as a bimodal distribution on a histogram, with a peak below the gate threshold (i.e., GFP negative cell population) and a peak above it (i.e., the distinct GFP positive population mentioned above). […] In this study, a % GFP+ of at least 50% is considered to reflect the existence of a second population in the histograms, and thus a binary indicator of promoter function. […] The median GFP intensity of the GFP+ population was used a measure of the strength of the promoter, and normalized to the Ef1a positive control as shown in FIG. 2C.
This aligns with previous observations that the RNPA2B1 promoter is much stronger than that of CBX3 (Zhang, F., et al. (2010) Mol Ther, 18, 1640-1649 (7)). However, the RNPA2B1 promoter in A2UCOE is only 30% as strong as the EF1α promoter. […]

B1: Candidate 6: Full length SRF-UCOE, SEQ ID NO:1; region between human SURF1 and SURF2 including first introns, chr9 (nucleic acid, listed as Homo sapiens)
DNA: GCACACGACCACAATTCCACTGAAAGCATTTTAATACGGAACTTGTCACTCCCAGGGAGCCTCCGCTCAGCCGGCAGTTGGTTCATTTCAATCCCCACGACAACCCTTCAAAGTGCAGGGCAGACAGCAGGTGGCTCTGCCCAGGCGCCTGGATCACAGCCCGGCCTGCAGCCCTCACCTGGGCGCGGGGAGACCCTGAGGACGCTCCTCCAGGCGGCGCTGGCCGGGGCCTGCGGACACGGACGGGCGGGCTGAGCTCCGGGACCCCTCCCCGCGCCCCGCACCCCGCACCCCGCACCCCGCACCCCGCACCCGGCGCTCACCCGTCCCAGCCCCGCCGCCCGCAGCCCCAGCTGCAACGCAGCCACCGCCGCCATCGCACCCGGCCCCGCGGGCGCTTCCGGGACGCAGGAGGCATCTGCATCCGGGGCGCCGCTGAGTCCCGCCCAGAGCCCCGCCCCCGGCTCCAGGTTCTGCGAGCGGCTTCCGCCGGGCTGCTCCGCGGGCGCGTCGGCCATGAGCGAGTTGCCGGGCGACGTGCGGGCGTTTCTGCGGGAGCACCCGAGCCTGCGGCTCCAGACGGACGCCCGCAAGGTTCGCAGCGCGGGAGGGGAACGGAGTGGCGGAGAAGGGCGCAGTTGGGATGAGGGGCTGAGGGGAGGGCAGGGGAGAGGAGAGGGCAGGGGAGAGGGGAGAGGGGAGAGCAGGAGAGAGGGGAAGGCAGGGGAGAGGGCGCGGCGGGATCAGGGGAGGAGAGGGAAGGGGGCGCGGCAGGAGGGGGCACCAGGGAGCGGAGCCCTGGCCCTCCTGACGTCCTGCCCGCCCACGCGTCCGCAGGTGAGGTGCATCCTGACAGGTCACGAGCTGCCCTGCCGCCTGCCGGAGCTCCAGGTCTACACCCGCGGCAAAAAGTACCAGCGGCTGGTCCGCGCCTCCCCGGCCTTCGACTATGCAGAGTTCGAGCCGCACATCGTGCCCAGCACCAAGAACCCGTAGGTGGTC
silencing resistance / stable expression relative to the negative (Ef1α-only) control ([1]; 19 days): significant improvement in stable expression | loss in percent GFP positive cells over the time period ([1]; over 19 days after puromycin removal, flow cytometry): about 6% | peaks in fluorescence histogram (binary indicator of promoter function) ([2]; at least 50% GFP+ = second population): only one peak | % GFP+ cells, representative flow cytometry example ([2]; promoterless GFP construct, after two weeks of antibiotic selection, one representative example): 1.99% | inherent promoter activity [2]: did not exhibit inherent promoter activity | inherent promoter activity ([2]; listed as SRF-UCOE element): does not initiate transcription
